The values that follow come from US20110038791.

The target in one series is T1, Six1, full-length (UniProt Q15475).
T1 sequence: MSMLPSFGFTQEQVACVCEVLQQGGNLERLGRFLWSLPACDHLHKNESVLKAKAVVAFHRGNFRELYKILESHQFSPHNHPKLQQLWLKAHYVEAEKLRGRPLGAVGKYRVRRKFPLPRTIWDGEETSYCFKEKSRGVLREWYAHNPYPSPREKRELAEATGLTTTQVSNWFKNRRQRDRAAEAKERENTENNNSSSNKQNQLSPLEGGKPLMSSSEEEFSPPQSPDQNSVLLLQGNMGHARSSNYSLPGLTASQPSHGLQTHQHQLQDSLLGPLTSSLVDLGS
Nature of the series: EMSA. As to conditions: Six1 alone. For orientation: Mobility shift assays separate free from complexed probe on a gel.

The test system of series [1] is Six1 + Eya2 Eya domain (ED) complex. Nature of the series: EMSA. The conditions noted are these: addition of Eya ED increases affinity.
The subject of series [2] is Six1, near full-length (natural degradation product ending at residue 259). Kind of series: FP. The conditions noted are these: 28 kD Six1 with 10 kD fluorescein DNA, single cuvette.
In series [3] the test system is Six1 + Eya2 Eya domain (ED) complex. Nature of the series: FP. As to conditions: DMSO no effect.
The subject of series [4] is Six1, near full-length (natural degradation product ending at residue 259). Nature of the series: EMSA. As to conditions: preliminary estimate.

With 18 nt dsDNA containing MEF3 site, the equilibrium dissociation constant (Kd) with Six1, full-length is 1000 nM; in series [1], 300 nM.
The substance 5'-fluorescein 16 nt MEF3 dsDNA registered a binding (fold increase in polarization) in series [2] greater than 4. Moreover, in series [3], the binding (fold increase in anisotropy) came to 3.
16 nt DNA containing MEF3 motif: the Kd in series [4] is 1000 nM.

By Kd is commonly meant the equilibrium constant for the complex coming apart.
